Laboratory results published in the supplement of paper PMC5998384.

Tests used:
[1] = test system: HeLa Kyoto; experiment: melting temperature (median over replicates), in situ; higher = more thermally stable
[2] = test system: HeLa Kyoto; experiment: solubility change mitosis vs G1/S (difference of NP-40 vs SDS log2 ratios) (log2 ratio difference); higher = more soluble in mitosis
[3] = test system: HeLa Kyoto; experiment: thermal stability score vs G1/S (z-score of summed log2 fold changes over temperatures); higher = more thermally stable than in G1/S
[4] = test system: HeLa Kyoto; experiment: solubility in G1/S (NP-40 vs SDS abundance) (log2 ratio); higher = more soluble; settings: cell cycle stage: G1/S
[5] = cell cycle stage: early G1 (4.5 h after nocodazole release)
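For melting temperature (median over replicates), in situ in this document: HeLa Kyoto cells synchronized by double thymidine or nocodazole block, proteins quantified by TMT10plex mass spectrometry, three independent biological replicates.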
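For solubility change mitosis vs G1/S (difference of NP-40 vs SDS log2 ratios) in this document: synchronized HeLa Kyoto cells (double thymidine block for G1/S, nocodazole release for mitosis), protein amounts in NP-40 versus SDS lysates quantified by mass spectrometry, three biological replicates.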
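For solubility in G1/S (NP-40 vs SDS abundance) in this document: HeLa Kyoto cells arrested at G1/S by double thymidine block, proteins quantified by TMT10plex mass spectrometry in mild NP-40 versus SDS extracts, three biological replicates.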
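For thermal stability score vs G1/S (z-score of summed log2 fold changes over temperatures) in this document: synchronized HeLa Kyoto cells, proteins quantified by TMT10plex mass spectrometry, three biological replicates, mitosis taken 0.5 h after nocodazole release, G1/S directly after double thymidine block.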

Row | Sequence | melting temperature ([1]; cell cycle stage: G1/S) | melting temperature ([1]; cell cycle stage: mitosis) | solubility change mitosis (log2) [2] | thermal stability score [3, 5] | thermal stability score ([3]; cell cycle stage: mitosis) | solubility in G1/S (log2) [4]
1 | MAAVQVVGSWPSVQPREAPREAIPERGNGFRLLSARLCALRPDDSSSARTEIHLLFDQLISENYSEGSGVAPEDVSALLVQACRLVPLNQNHLVSKVSQLIHHLLNRLQVIVDEQHLDFLLAYTISAIHQCSSWTHREILQALAALVYCNGSKCQKYLPELLGNTGLLMKLSDLAQSDPEVRRAAVHCMANLCLSVPGQPYLEEPYQNVCFQAFLTILQSPKSSDMDDITFCMLLQNALKGIQSLLNGGRMKLTQTDELGALLAVLKKFMFHGLPGLNIEMPTVLYPTPLPQYDGRTPIKPQQSESSASRPTLNKKKKSKVKPKKIQQGEEEEKESSGEIEAAPVTGTGRVNLHEGNTWCPSSLGVQSLPLDGSGAAEKDGVSSSFSSSSWKRVSSSESDFSDAEGGMQSKMRSYQAKVRQGALVCFLSTIKSIEKKVLYGYWSAFIPDTPELGSPQSVSLMTLTLKDPSPKTRACALQVLSAILEGSKQFLSVAEDTSDHRRAFTPFSVMIACSIRELHRCLLLALVAESSSQTVTQIIKCLANLVSNAPYDRLKLSLLTKVWNQIKPYIRHKDVNVRVSSLTLLGAIVSTHAPLPEVQLLLQQPCSSGLGNSNSATPHLSPPDWWKKAPAGPSLEETSVSSPKGSSEPCWLIRLCISIVVLPKEDSCSGSDAGSAAGSTYEPSPMRLEALQVLTLLARGYFSMTQAYLMELGEVICKCMGEADPSIQLHGAKLLEELGTGLIQQYKPDSTAAPDQRAPVFLVVMFWTMMLNGPLPRALQNSEHPTLQASACDALSSILPEAFSNLPNDRQMLCITVLLGLNDSKNRLVKAATSRALGVYVLFPCLRQDVIFVADAANAILMSLEDKSLNVRAKAAWSLGNLTDTLIVNMETPDPSFQEEFSGLLLLKMLRSAIEASKDKDKVKSNAVRALGNLLHFLQPSHIEKPTFAEIIEESIQALISTVLTEAAMKVRWNACYAMGNVFKNPALPLGTAPWTSQAYNALTSVVTSCKNFKVRIRSAAALSVPGKREQYGSVDQYARIWNALVTALQKSEDTIDFLEFKYCVSLRTQICQALIHLLSLASASDLPCMKETLELSGNMVQSYILQFLKSGAEGDDTGAPHSPQERDQMVRMALKHMGSIQAPTGDTARRAIMGFLEEILAVCFDSSGSQGALPGLTNQ [HEATR6] | 50.5 °C | 50.1 °C | -0.216 | -0.697 | 0.141 | 0.0502
2 | MAAVRGLRVSVKAEAPAGPALGLPSPEAESGVDRGEPEPMEVEEGELEIVPVRRSLKELIPDTSRRYENKAGSFITGIDVTSKEAIEKKEQRAKRFHFRSEVNLAQRNVALDRDMMKKAIPKVRLETIYICGVDEMSTQDVFSYFKEYPPAHIEWLDDTSCNVVWLDEMTATRALINMSSLPAQDKIRSRDASEDKSAEKRKKDKQEDSSDDDEAEEGEVEDENSSDVELDTLSQVEEESLLRNDLRPANKLAKGNRLFMRFATKDDKKELGAARRSQYYMKYGNPNYGGMKGILSNSWKRRYHSRRIQRDVIKKRALIGDDVGLTSYKHRHSGLVNVPEEPIEEEEEEEEEEEEEEEEDQDMDADDRVVVEYHEELPALKQPRERSASRRSSASSSDSDEMDYDLELKMISTPSPKKSMKMTMYADEVESQLKNIRNSMRADSVSSSNIKNRIGNKLPPEKFADVRHLLDEKRQHSRPRPPVSSTKSDIRQRLGKRPHSPEKAFSSNPVVRREPSSDVHSRLGVPRQDSKGLYADTREKKSGNLWTRLGSAPKTKEKNTKKVDHRAPGAEEDDSELQRAWGALIKEKEQSRQKKSRLDNLPSLQIEVSRESSSGSEAES [NCBP3] | 45.6 °C | 49.4 °C | 0.394 | 1.38 | 2.56 | -0.537
3 | MAAVSVYAPPVGGFSFDNCRRNAVLEADFAKRGYKLPKVRKTGTTIAGVVYKDGIVLGADTRATEGMVVADKNCSKIHFISPNIYCCGAGTAADTDMTTQLISSNLELHSLSTGRLPRVVTANRMLKQMLFRYQGYIGAALVLGGVDVTGPHLYSIYPHGSTDKLPYVTMGSGSLAAMAVFEDKFRPDMEEEEAKNLVSEAIAAGIFNDLGSGSNIDLCVISKNKLDFLRPYTVPNKKGTRLGRYRCEKGTTAVLTEKITPLEIEVLEETVQTMDTS [PSMB7] | 60.7 °C | 64.5 °C | -0.192 | -1.21 | -2.39 | 0.376
4 | MAAVVALSLRRRLPATTLGGACLQASRGAQTAAATAPRIKKFAIYRWDPDKAGDKPHMQTYEVDLNKCGPMVLDALIKIKNEVDSTLTFRRSCREGICGSCAMNINGGNTLACTRRIDTNLNKVSKIYPLPHMYVIKDLVPDLSNFYAQYKSIEPYLKKKDESQEGKQQYLQSIEEREKLDGLYECILCACCSTSCPSYWWNGDKYLGPAVLMQAYRWMIDSRDDFTEERLAKLQDPFSLYRCHTIMNCTRTCPKGLNPGKAIAEIKKMMATYKEKKASV [SDHB] | 54.7 °C | 56.3 °C | -0.00338 | -1.86 | -2.8 | 0.659
5 | MAAVVLAATRLLRGSGSWGCSRLRFGPPAYRRFSSGGAYPNIPLSSPLPGVPKPVFATVDGQEKFETKVTTLDNGLRVASQNKFGQFCTVGILINSGSRYEAKYLSGIAHFLEKLAFSSTARFDSKDEILLTLEKHGGICDCQTSRDTTMYAVSADSKGLDTVVALLADVVLQPRLTDEEVEMTRMAVQFELEDLNLRPDPEPLLTEMIHEAAYRENTVGLHRFCPTENVAKINREVLHSYLRNYYTPDRMVLAGVGVEHEHLVDCARKYLLGVQPAWGSAEAVDIDRSVAQYTGGIAKLERDMSNVSLGPTPIPELTHIMVGLESCSFLEEDFIPFAVLNMMMGGGGSFSAGGPGKGMFSRLYLNVLNRHHWMYNATSYHHSYEDTGLLCIHASADPRQVREMVEIITKEFILMGGTVDTVELERAKTQLTSMLMMNLESRPVIFEDVGRQVLATRSRKLPHELCTLIRNVKPEDVKRVASKMLRGKPAVAALGDLTDLPTYEHIQTALSSKDGRLPRTYRLFR [PMPCA] | 52.2 °C | 51.8 °C | -0.174 | 0.057 | -1.17 | -0.0271
6 | MACLLETPIRMSVLSEVTASSRHYVDRLFDPDPQKVLQGVIDMKNAVIGNNKQKANLIVLGAVPRLLYLLQQETSSTELKTECAVVLGSLAMGTENNVKSLLDCHIIPALLQGLLSPDLKFIEACLRCLRTIFTSPVTPEELLYTDATVIPHLMALLSRSRYTQEYICQIFSHCCKGPDHQTILFNHGAVQNIAHLLTSLSYKVRMQALKCFSVLAFENPQVSMTLVNVLVDGELLPQIFVKMLQRDKPIEMQLTSAKCLTYMCRAGAIRTDDNCIVLKTLPCLVRMCSKERLLEERVEGAETLAYLIEPDVELQRIASITDHLIAMLADYFKYPSSVSAITDIKRLDHDLKHAHELRQAAFKLYASLGANDEDIRKKIIETENMMDRIVTGLSESSVKVRLAAVRCLHSLSRSVQQLRTSFQDHAVWKPLMKVLQNAPDEILVVASSMLCNLLLEFSPSKEPILESGAVELLCGLTQSENPALRVNGIWALMNMAFQAEQKIKADILRSLSTEQLFRLLSDSDLNVLMKTLGLLRNLLSTRPHIDKIMSTHGKQIMQAVTLILEGEHNIEVKEQTLCILANIADGTTAKDLIMTNDDILQKIKYYMGHSHVKLQLAAMFCISNLIWNEEEGSQERQDKLRDMGIVDILHKLSQSPDSNLCDKAKMALQQYLA [ARMC8] | 51.1 °C | 51 °C | -0.195 | -0.497 | 0.122 | -0.0698
7 | MACPALGLEALQPLQPEPPPEPAFSEAQKWIEQVTGRSFGDKDFRTGLENGILLCELLNAIKPGLVKKINRLPTPIAGLDNIILFLRGCKELGLKESQLFDPSDLQDTSNRVTVKSLDYSRKLKNVLVTIYWLGKAANSCTSYSGTTLNLKEFEGLLAQMRKDTDDIESPKRSIRDSGYIDCWDSERSDSLSPPRHGRDDSFDSLDSFGSRSRQTPSPDVVLRGSSDGRGSDSESDLPHRKLPDVKKDDMSARRTSHGEPKSAVPFNQYLPNKSNQTAYVPAPLRKKKAEREEYRKSWSTATSPLGGERPFRYGPRTPVSDDAESTSMFDMRCEEEAAVQPHSRARQEQLQLINNQLREEDDKWQDDLARWKSRRRSVSQDLIKKEEERKKMEKLLAGEDGTSERRKSIKTYREIVQEKERRERELHEAYKNARSQEEAEGILQQYIERFTISEAVLERLEMPKILERSHSTEPNLSSFLNDPNPMKYLRQQSLPPPKFTATVETTIARASVLDTSMSAGSGSPSKTVTPKAVPMLTPKPYSQPKNSQDVLKTFKVDGKVSVNGETVHREEEKERECPTVAPAHSLTKSQMFEGVARVHGSPLELKQDNGSIEINIKKPNSVPQELAATTEKTEPNSQEDKNDGGKSRKGNIELASSEPQHFTTTVTRCSPTVAFVEFPSSPQLKNDVSEEKDQKKPENEMSGKVELVLSQKVVKPKSPEPEATLTFPFLDKMPEANQLHLPNLNSQVDSPSSEKSPVMTPQFKFWAWDPEEERRRQEKWQQEQERLLQERYQKEQDKLKEEWEKAQKEVEEEERRYYEEERKIIEDTVVPFTVSSSSADQLSTSSSMTEGSGTMNKIDLGNCQDEKQDRRWKKSFQGDDSDLLLKTRESDRLEEKGSLTEGALAHSGNPVSKGVHEDHQLDTEAGAPHCGTNPQLAQDPSQNQQTSNPTHSSEDVKPKTLPLDKSINHQIESPSERRKKSPREHFQAGPFSPCSPTPPGQSPNRSISGKKLCSSCGLPLGKGAAMIIETLNLYFHIQCFRCGICKGQLGDAVSGTDVRIRNGLLNCNDCYMRSRSAGQPTTL [LIMCH1] | 51.2 °C | 52 °C | -0.237 | 4.62 | 6.09 | 0.188
8 | MADAAPQLGKRKRELDVEEAHAASTEEKEAGVGNGTCAPVRLPFSGFRLQKVLRESARDKIIFLHGKVNEASGDGDGEDAVVILEKTPFQVEQVAQLLTGSPELQLQFSNDIYSTYHLFPPRQLNDVKTTVVYPATEKHLQKYLRQDLRLIRETGDDYRNITLPHLESQSLSIQWVYNILDKKAEADRIVFENPDPSDGFVLIPDLKWNQQQLDDLYLIAICHRRGIRSLRDLTPEHLPLLRNILHQGQEAILQRYRMKGDHLRVYLHYLPSYYHLHVHFTALGFEAPGSGVERAHLLAEVIENLECDPRHYQQRTLTFALRADDPLLKLLQEAQQS [DCPS] | 56.3 °C | 55.7 °C | -0.0249 | -0.562 | -3.36 | 0.263
9 | MADEALAGLDEGALRKLLEVTADLAERRRIRSAIRELQRQELEREEEALASKRFRAERQDNKENWLHSQQREAEQRAALARLAGQLESMNDVEELTALLRSAGEYEERKLIRAAIRRVRAQEIEAATLAGRLYSGRPNSGSREDSKGLAAHRLEQCEVPEREEQEQQAEVSKPTPTPEGTSQDVTTVTLLLRAPPGSTSSSPASPSSSPTPASPEPPLEPAEAQCLTAEVPGSPEPPPSPPKTTSPEPQESPTLPSTEGQVVNKLLSGPKETPAAQSPTRGPSDTKRADVAGPRPCQRSLSVLSPRQPAQNRESTPLASGPSSFQRAGSVRDRVHKFTSDSPMAARLQDGTPQAALSPLTPARLLGPSLTSTTPASSSSGSSSRGPSDTSSRFSKEQRGVAQPLAQLRSCPQEEGPRGRGLAARPLENRAGGPVARSEEPGAPLPVAVGTAEPGGSMKTTFTIEIKDGRGQASTGRVLLPTGNQRAELTLGLRAPPTLLSTSSGGKSTITRVNSPGTLARLGSVTHVTSFSHAPPSSRGGCSIKMEAEPAEPLAAAVEAANGAEQTRVNKAPEGRSPLSAEELMTIEDEGVLDKMLDQSTDFEERKLIRAALRELRQRKRDQRDKERERRLQEARGRPGEGRGNTATETTTRHSQRAADGSAVSTVTKTERLVHSNDGTRTARTTTVESSFVRRSENGSGSTMMQTKTFSSSSSSKKMGSIFDREDQASPRAGSLAALEKRQAEKKKELMKAQSLPKTSASQARKAMIEKLEKEGAAGSPGGPRAAVQRSTSFGVPNANSIKQMLLDWCRAKTRGYEHVDIQNFSSSWSDGMAFCALVHNFFPEAFDYGQLSPQNRRQNFEVAFSSAEMLVDCVPLVEVDDMMIMGKKPDPKCVFTYVQSLYNHLRRHELRLRGKNV [SMTN] | 48.9 °C | 50 °C | 0.208 | 0.326 | 0.869 | -0.058
